Tests used:
[1] = target: antigen of the binding ELISA (not given); assay: binding ELISA relative to reference standard; 2 to 8 C inverted, initial
[2] = target: antigen of the binding ELISA (not given); assay: binding ELISA relative to reference standard; 25 C inverted, 1 month
[3] = target: antigen of the binding ELISA (not given); assay: binding ELISA relative to reference standard; 2 to 8 C inverted, 12 months
[4] = target: antigen of the binding ELISA (not given); assay: binding ELISA relative to reference standard; 2 to 8 C inverted, 6 months
[5] = target: antigen of the binding ELISA (not given); assay: binding ELISA relative to reference standard; 2 to 8 C inverted, 3 months
[6] = target: antigen of the binding ELISA (not given); assay: binding ELISA relative to reference standard; 25 C inverted, initial
[7] = target: antigen of the binding ELISA (not given); assay: binding ELISA relative to reference standard; 2 to 8 C upright, initial
[8] = target: antigen of the binding ELISA (not given); assay: binding ELISA relative to reference standard; 25 C upright, initial
[9] = target: antigen of the binding ELISA (not given); assay: binding ELISA relative to reference standard; 40 C inverted, initial
[10] = target: antigen of the binding ELISA (not given); assay: binding ELISA relative to reference standard; 25 C upright, 6 months
[11] = target: antigen of the binding ELISA (not given); assay: binding ELISA relative to reference standard; 25 C inverted, 0.5 month
[12] = target: antigen of the binding ELISA (not given); assay: binding ELISA relative to reference standard; 40 C inverted, 1 month
[13] = target: antigen of the binding ELISA (not given); assay: binding ELISA relative to reference standard; 25 C inverted, 3 months
[14] = target: antigen of the binding ELISA (not given); assay: binding ELISA relative to reference standard; 2 to 8 C inverted, 1 month
[15] = target: antigen of the binding ELISA (not given); assay: binding ELISA relative to reference standard; 25 C inverted, 2 months
[16] = target: antigen of the binding ELISA (not given); assay: binding ELISA relative to reference standard; 40 C inverted, 0.5 month

B1: ADI-58125 (antibody, human IgG1, lambda, V domains shown)
VH: EVQLVESGGGLVKPGGSLRLSCAASGFTFSSYYMNWVRQAPGKGLEWVSSISEDGYSTYYPDSLKGRFTISRDSAKNSLYLQMNSLRADDTAVYYCARDFSGHTAWAGTGFEYWGQGTLVTVSS
VL: QSVLTQPPSVSGAPGQRITISCTGSSSNIGAGYDVHWYQQLPGTAPKLLIYGSSSRNSGVPDRFSGSKSGTSASLAITGLQAEDEADYYCQSYDSSLSVLYTFGTGTKVTVLG
B1 gave a Binding ELISA, % of reference standard activity (% of reference standard activity) [1] of 114, a Binding ELISA, % of reference standard activity (% of reference standard activity) [2] of 102 and a Binding ELISA, Reference Standard activity % (% of reference standard activity) [2] of 102. The Binding ELISA, % of reference standard activity (% of reference standard activity) [3] was 93, the Binding ELISA, % of reference standard activity (% of reference standard activity) [4] was 108 and the Binding ELISA, % of reference standard activity (% of reference standard activity) [5] was 111. It also gave a Binding ELISA, % of reference standard activity (% of reference standard activity) [6] of 114, a Binding ELISA, Reference Standard activity % (% of reference standard activity) [6] of 114 and a Binding ELISA, % of reference standard activity (% of reference standard activity) [7] of 114. It also gave a Binding ELISA, % of reference standard activity (% of reference standard activity) [8] of 114, a Binding ELISA, Reference Standard activity % (% of reference standard activity) [8] of 114 and a Binding ELISA, % of reference standard activity (% of reference standard activity) [9] of 114. The Binding ELISA, Reference Standard activity % (% of reference standard activity) [9] was 114, the Binding ELISA, % of reference standard activity (% of reference standard activity) [10] was 91 and the Binding ELISA, % of reference standard activity (% of reference standard activity) [11] was 109. It also gave a Binding ELISA, Reference Standard activity % (% of reference standard activity) [11] of 109, a Binding ELISA, % of reference standard activity (% of reference standard activity) [12] of 94 and a Binding ELISA, Reference Standard activity % (% of reference standard activity) [12] of 94. It also gave a Binding ELISA, % of reference standard activity (% of reference standard activity) [13] of 94, a Binding ELISA, % of reference standard activity (% of reference standard activity) [14] of 101 and a Binding ELISA, % of reference standard activity (% of reference standard activity) [15] of 111. The Binding ELISA, Reference Standard activity % (% of reference standard activity) [15] was 111, the Binding ELISA, % of reference standard activity (% of reference standard activity) [16] was 99 and the Binding ELISA, Reference Standard activity % (% of reference standard activity) [16] was 99.

Reference: US20240425567A1
